What is called Kd is a measure of binding affinity in units of concentration.

The source of these data is article doi:10.1101/2022.12.30.522308 (bioRxiv, 2022).

Assay [1] has as its target recombinant human IL-9 (R&D Systems) (Homo sapiens, UniProt P15248). As to the kind of experiment: BLI. Background: BLI is a label-free optical method that tracks binding on a fibre tip over time.
The target of assay [2] is T1, non-glycosylated binary hIL-9:hIL-9Rα complex (human, UniProt P15248 19-144; Q01113-1 40-261). The assay can be described thus: ITC. (ITC needs no label: the signal is the heat of the interaction.)
T1 sequence (P15248 19-144, chain 1 of 2): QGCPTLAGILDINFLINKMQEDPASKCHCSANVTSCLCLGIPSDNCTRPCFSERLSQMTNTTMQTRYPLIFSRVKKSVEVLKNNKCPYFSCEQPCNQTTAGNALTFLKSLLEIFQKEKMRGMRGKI
T1 sequence (Q01113 40-261, chain 2 of 2): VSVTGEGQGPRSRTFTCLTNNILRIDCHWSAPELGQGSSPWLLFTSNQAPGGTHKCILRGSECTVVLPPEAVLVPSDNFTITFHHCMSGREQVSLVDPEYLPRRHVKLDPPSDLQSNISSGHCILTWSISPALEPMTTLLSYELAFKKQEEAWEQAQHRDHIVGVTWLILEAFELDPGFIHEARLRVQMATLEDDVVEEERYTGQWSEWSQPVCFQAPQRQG
Assay [3] concerns the target T1, non-glycosylated binary hIL-9:hIL-9Rα …. As to the kind of experiment: ITC. This is another data set of the same source.
The target of assay [4] is recombinant mouse IL-9 (R&D Systems) (mouse, UniProt P15247). The assay can be described thus: BLI.
Sequence of recombinant mouse IL-9 (R&D Systems) (P15247 19-144): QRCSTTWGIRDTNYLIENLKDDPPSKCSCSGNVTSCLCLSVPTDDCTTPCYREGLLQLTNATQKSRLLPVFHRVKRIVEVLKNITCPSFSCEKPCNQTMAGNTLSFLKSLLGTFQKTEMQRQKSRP

Where two headings read alike, the source gives them in different places.

Sequence of recombinant human IL-9 (R&D Systems) (P15248 19-144): as the sequence (P15248 19-144, chain 1 of 2) above

B1: anti-hIL-9 monoclonal antibody 7D6 (antibody, V domains shown)
VH: QLQLVESGPGLVKPSQTLSLTCTVSGGSITTGYYAWSWIRQPPGKGLEWMGFIARDGSTSYSPSLKSRTSISRDTSKNQFSLQLSSVTPEDTAVYYCARAGEGRSWYPGYYYGMDYWGKGTLVTVSS
VL: QAVVTQEPSLSVSPGGTVTLTCGLSSGSVTSSNYPGWYQQTPGQAPRVLIYNTNSRHSGVPSRYSGFISGNKAALTITGAEPEDEADYYCHLHKGSTGVFGGGTHLTVL
Consider B1, for which the Kd in assay [1] amounted to 1.8 nM.

B2: anti-hIL-9 monoclonal antibody 6E2 (antibody, V domains shown)
VH: QVQLVESGGGLVQPGGSLRLSCAASGFTFSSSAMGWVRQAPGKGLEWVSTIVNSITTTYYADSVKGRFTISTDNAKNTLYLQIDSLKSEDTAVYYCGSLAGPYYDYWGQGTQVTVSS
VL: ALTQPSTVSVSLGQTARITCQGGSLGSYDAHWYQQKPGQAPVLVIHDNNSRPSGIPERFTGSRSGETATLTISGAQTEDEADYYCQSYDSTSDALVFGGGTQLTVL
Turning to B2, the Kd in assay [1] came out at 0.24 nM.

B3: trimmed extracellular domain of human common gamma chain (hγc, residues 56-254), produced in Sf9 cells (receptor, UniProt P31785-1 56-254, looked up)
chain: PLPEVQCFVFNVEYMNCTWNSSSEPQPTNLTLHYWYKNSDNDKVQKCSHYLFSEEITSGCQLQKKEIHLYQTFVVQLQDPREPRRQATQMLKLQNLVIPWAPENLTLHKLSESQLELNWNNRFLNHCLEHLVQYRTDWDHSWTEQSVDYRHKFSLPSVDGQKRYTFRVRSRFNPLCGSAQHWSEWSHPIHWGSNTSKEN
For the molecule B3, the Kd in assay [2] amounted to 2500 nM; in assay [3], 9000 nM.

B4: anti-mIL-9 monoclonal antibody 35D8 (antibody, V domains shown)
VH: QVQLVESGPGLVQPSQTLSLTCTVSGGSITTSYYDWSWIRQPPGKGLEWMGAIAYSGNAYYSPSLKSRTSISRDTSKNQFTLQLSSVTPEDTAVYYCAREDHYSDTHGWNDYWGQGTQVTVSS
VL: ALTQPSAVSVSLGQTARITCQGGSIGNFGATWYQQKPGQAPVLLSLGEHSRPSGIPERFSGSKSGGTATLTISGAQAEDEADYYCQSFDYIGNDHVFGGGTHLTVL
Consider B4, for which, in assay [4], the binding result is reported as “binds”.
